Source: patent US20040053296A1 (TAKARA BIO, published 2004)

Experiments:
[1] = biological target: T1, mucin box-deleted mutant of rat neutral ceramidase (delta-mucin CDase), C-terminal myc tag (rat, UniProt Q91XT9 1-761); assay: lectin blot with HRP-labeled PNA lectin after immunoprecipitation from HEK293 lysate
T1 construct: Expressed in HEK293 cells, immunoprecipitated and blotted; also called Δmucin; Δmucin CDase; not shown: C-terminal Myc-His tag from vector pcDNA3.1/Myc-his(+)
Experimental: CDase was immunoprecipitated from the cell lysate of HEK293 cells prepared in Example 2, in which Δmucin or wild-type CDase was expressed, by using an anti-CDase antibody. A 100-fold dilution of anti-CDase was coupled with 10 μl of protein A-agarose (trade name, manufactured by SANTA CRUZ) in 100 μl of a reaction buffer (10 mM Tris-HCl, pH 7.5, containing 150 mM NaCl, 1% (v/v) Tritonm X-100 and 0.1% (w/v) BSA) at 4° C. for 2 hours. The product obtained was washed five times with the above reaction buffer. Thereafter, this product was mixed with a CDase sample, obtained by previously heating at 100° C. for 5 minutes in SDS sample buffer [20 mM Tris-HCl, pH 7.5, containing 1% (w/v) SDS and 1% (v/v) 2-mercaptoethanol], and incubated at 4° C. for 18 hours with gentle stirring. Subsequently, the immunoprecipitate was sedimented by centrifugation, washed five times with the above reaction buffer, suspended in 20 μl of the SDS sample buffer, and heated at 100° C. for 5 minutes. The resulting product was subjected to SDS-PAGE and Western blotting as described in Example 2. The PVDF membrane was stained with an anti-Myc antibody or an HRP-labeled PNA lectin. PNA (peanut agglutinin) lectin is a lectin capable of specifically recognizing and binding to the Galβ1,3GalNAc sequence of O-glycan.

[2] = biological target: T2, 94-kDa mouse neutral ceramidase from the soluble fraction of the liver, lacking the mucin box (mouse, UniProt Q9JHE3 75-756, limits assumed); assay: lectin blot with HRP-labeled PNA lectin after immunoprecipitation from mouse liver soluble fraction
T2 construct: The whole entry is named here, and the true chain is shorter at the N-terminus; also called 94-kDa CDase; enzyme in the soluble fraction of the liver
T2 sequence (Q9JHE3 75-756 limits assumed): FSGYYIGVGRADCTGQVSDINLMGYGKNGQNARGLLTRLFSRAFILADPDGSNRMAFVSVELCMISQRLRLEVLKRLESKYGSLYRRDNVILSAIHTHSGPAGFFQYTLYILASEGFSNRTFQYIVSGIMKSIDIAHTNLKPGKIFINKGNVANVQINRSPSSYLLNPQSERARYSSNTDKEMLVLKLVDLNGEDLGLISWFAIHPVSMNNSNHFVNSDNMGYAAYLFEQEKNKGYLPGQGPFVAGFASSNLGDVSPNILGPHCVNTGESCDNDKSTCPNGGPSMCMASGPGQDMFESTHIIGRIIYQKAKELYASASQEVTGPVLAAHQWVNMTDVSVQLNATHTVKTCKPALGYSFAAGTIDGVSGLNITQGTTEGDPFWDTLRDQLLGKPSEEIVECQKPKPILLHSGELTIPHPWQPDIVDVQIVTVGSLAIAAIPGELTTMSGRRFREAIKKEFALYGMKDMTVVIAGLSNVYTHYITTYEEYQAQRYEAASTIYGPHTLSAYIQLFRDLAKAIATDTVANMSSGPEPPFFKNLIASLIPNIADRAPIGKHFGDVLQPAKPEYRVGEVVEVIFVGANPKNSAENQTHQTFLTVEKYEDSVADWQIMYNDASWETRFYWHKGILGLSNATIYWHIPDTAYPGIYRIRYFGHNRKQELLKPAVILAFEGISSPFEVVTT

T1 sequence (Q91XT9 other isoform, or with tags, fused parts or gaps mutant): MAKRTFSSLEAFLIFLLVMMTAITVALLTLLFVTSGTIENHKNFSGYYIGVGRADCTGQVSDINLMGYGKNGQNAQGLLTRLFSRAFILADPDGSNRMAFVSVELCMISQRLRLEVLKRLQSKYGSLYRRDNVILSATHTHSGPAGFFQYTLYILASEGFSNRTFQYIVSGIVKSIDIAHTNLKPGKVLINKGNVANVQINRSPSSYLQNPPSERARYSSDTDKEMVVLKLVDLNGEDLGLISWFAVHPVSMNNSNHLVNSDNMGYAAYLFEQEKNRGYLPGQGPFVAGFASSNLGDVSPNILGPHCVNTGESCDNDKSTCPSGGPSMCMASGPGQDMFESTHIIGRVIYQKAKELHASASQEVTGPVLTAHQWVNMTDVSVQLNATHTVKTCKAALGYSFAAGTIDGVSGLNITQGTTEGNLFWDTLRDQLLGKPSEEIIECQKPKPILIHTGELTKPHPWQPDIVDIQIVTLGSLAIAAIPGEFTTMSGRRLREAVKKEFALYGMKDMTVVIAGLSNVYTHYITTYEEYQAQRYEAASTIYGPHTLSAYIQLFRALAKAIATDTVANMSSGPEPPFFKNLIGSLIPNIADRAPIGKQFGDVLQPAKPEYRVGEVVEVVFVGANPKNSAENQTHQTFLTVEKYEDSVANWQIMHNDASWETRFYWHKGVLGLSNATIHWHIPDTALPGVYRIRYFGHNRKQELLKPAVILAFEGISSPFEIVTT

binding result [1]: no binding
binding result [2]: no binding
B1: HRP-labeled PNA lectin (peanut agglutinin) (other, UniProt P02872 24-259, looked up)
chain: AETVSFNFNSFSEGNPAINFQGDVTVLSNGNIQLTNLNKVNSVGRVLYAMPVRIWSSATGNVASFLTSFSFEMKDIKDYDPADGIIFFIAPEDTQIPAGSIGGGTLGVSDTKGAGHFVGVEFDTYSNSEYNDPPTDHVGIDVNSVDSVKTVPWNSVSGAVVKVTVIYDSSTKTLSVAVTNDNGDITTIAQVVDLKAKLPERVKFGFSASGSLGGRQIHLIRSWSFTSTLITTTRRS
modifications: HRP-labeled
notes: Lectin used as a blotting reagent; also called peanut lectin
